Earlier results, collected in publication PMC4184475.

What was measured:
[1] = biological target: Cys473 (UniProt position 487, ILIFHCEFSSE); details: reduced thiol form (implied); otherwise not stated
[2] = biological target: Cys106 (UniProt position 106, LIAAICAGPTA); details: reduced thiol form (implied); otherwise not stated

Substance | pKa [1] | pKa [2]
Cdc25B phosphatase (M-phase inducer phosphatase 2) (Homo sapiens) | 5.8 | 
DJ-1 (Parkinson disease protein 7) (Homo sapiens) |  | 5.4
